This is an account of results in the Immune Epitope Database (IEDB).

The assay deals with HLA-A*02:01. The assay can be described thus: IEDB peptide-MHC binding, purified MHC/competitive/radioactivity; ≥ and ≤ were set here for values at or beyond the usual limits of such assays.
[1] abbreviates: source organism: Human gammaherpesvirus 8.

By IC50 is commonly meant the midpoint of a concentration-inhibition curve. ALIGTMCGI: the IC50 under setting [1] worked out at 33 nM. ALIGTMCGIL: the IC50 under setting [1] amounted to 416 nM.

As to ATLGTVILL, the IC50 under setting [1] came out at 178 nM.

In the case of FIALNLSFI, the IC50 under setting [1] is 78 nM. On the same count and under the same terms, the value for FKNSSNLFT was 64 nM; that for FLYVVCSLA was 4 nM; that for FVAVHPVDV was 19 nM. Regarding GALLPGNLV, the IC50 under setting [1] was found to be 500 nM.

Regarding HLDFWHHEV, under setting [1], the IC50 was 20 nM. Same read-out and setting: the value for ITATFTAPL was 38 nM; that for KLLGTWMFSV was 3 nM; that for LLGTWMFSV was 3 nM.

Regarding QLASILGCVD, under setting [1], the IC50 came out at 312 nM. Take RIFYNILEI: under setting [1], the IC50 came out at 62 nM. In the case of RLGAIPPLV, under setting [1], the IC50 was determined as 333 nM. With RLSNRICFWA, the IC50 under setting [1] was determined as 384 nM.

As to RLYQASAVM, under setting [1], the half-maximal inhibitory concentration (IC50) amounted to 277 nM.

As for SLVTGFINFI, the IC50 under setting [1] came to 238 nM.

Consider SVDFYQFRV, for which the IC50 under setting [1] is 312 nM. Same read-out and setting: the value for SVSDFDLRI was 416 nM. As for TLGTVILLV, the IC50 (source organism: Homo sapiens) was 60 nM.
